From patent US20260071233A1

Target: Recombinant rat IFN-γ (rat) (UniProt P01581)
UniProt P01581, sequence (P01581 23-156 limits assumed): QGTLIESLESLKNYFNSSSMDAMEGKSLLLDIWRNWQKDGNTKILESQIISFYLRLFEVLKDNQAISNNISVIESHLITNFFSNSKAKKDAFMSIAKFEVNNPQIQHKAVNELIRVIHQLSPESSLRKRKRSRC

Recombinant B8R protein
percent neutralization: > 50%
